Measured values: patent US20090304687A1, “METHODS OF USING CD40 BINDING AGENTS” (Seattle Genetics , Inc., priority 2005, published 2009)
Residue numbers refer to the chain shown, from its start. Names may count otherwise. “And” between values parts separate entries of the source, which are not always exact repeats. Equal values may be shown once. “Also recorded” adds a separate entry of the source. Read-outs that look alike come from different tables or passages of the source.

Columns and labels:
[1] = system: Ramos cells; test: In vitro drug combinations with SGN-40, 3H-thymidine proliferation, Combination Index; assay type: cell-based; details: for Combination Index at ED50 / Combination Index at ED75 / Combination Index at ED90: drug with cross-linked SGN-40 (30.0-0.0586 ng/ml), Ramos cells 2% FBS, 72 hours
Experimental: Cells were treated for 72 hours, then labeled with ^3H-thymidine for 4 hours to measure proliferation rates. Dose response curves of drugs alone and in combination with the humanized CD40 antibody were reduced in Excel, and Combination Indices (CI) determined using the Calcusyn analysis package (Biosoft). […] CI values equal to 1.0 indicate an additive integration. For these studies, n=3 unless otherwise indicated.

[2] = biological target: CD40 immobilized on microassay plates (UniProt P25942 21-193, limits assumed); test: serially diluted antibody on CD40 immobilized on microassay plates
Experimental: Antibodies constructed using these variant light and heavy chain variable domains were analyzed for binding activity. Each antibody was diluted to equivalent concentrations, and then serially diluted. The diluted antibodies were assayed for binding to CD40 immobilized on microassay plates.

[3] = biological target: CD40 (Homo sapiens, UniProt P25942); test: Binding of variant antibodies to CD40 immobilized on microassay plates; parameters: Binding Data 1 / Binding Data 2 / Binding Data 3: unit not given here; details: for Binding Data 2 / Binding Data 1: affinity binding data, serially diluted antibody on immobilized CD40; for binding activity compared with the parent murine antibody: in words
Experimental: Antibodies constructed using these variant light and heavy chain variable domains were analyzed for binding activity. Each antibody was diluted to equivalent concentrations, and then serially diluted. The diluted antibodies were assayed for binding to CD40 immobilized on microassay plates. Affinity binding data for the variant antibodies are shown below in Table 3.

[4] = drug with cross-linked SGN-40, Ramos cells

Chain of CD40 immobilized on microassay plates (P25942 21-193 limits assumed): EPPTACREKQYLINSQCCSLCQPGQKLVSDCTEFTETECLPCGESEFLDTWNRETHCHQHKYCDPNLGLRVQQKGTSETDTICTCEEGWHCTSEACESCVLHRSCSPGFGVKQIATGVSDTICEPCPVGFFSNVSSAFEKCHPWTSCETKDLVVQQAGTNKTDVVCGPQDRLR
Chain of CD40 (P25942 21-277): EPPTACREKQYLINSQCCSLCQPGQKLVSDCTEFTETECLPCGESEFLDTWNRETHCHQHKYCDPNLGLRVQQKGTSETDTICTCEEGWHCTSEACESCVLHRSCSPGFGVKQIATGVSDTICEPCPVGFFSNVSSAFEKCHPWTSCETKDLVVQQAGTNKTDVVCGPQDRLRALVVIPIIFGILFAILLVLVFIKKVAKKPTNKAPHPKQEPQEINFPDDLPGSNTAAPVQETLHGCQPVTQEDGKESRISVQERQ

Molecule: Nc1ccn([C@@H]2O[C@H](CO)[C@@H](O)[C@@H]2O)c(=O)n1 [Ara-C]
- Combination Index at ED50 [1]: 0.95
- Combination Index at ED75 [1]: 0.90
- Combination Index at ED90 [1]: 0.90
- Effect (of combination with SGN-40) [1, 4]: Additive

Molecule: N.N.[Cl][Pt][Cl] [Cisplatin]
- Combination Index at ED50 [1]: 1.04
- Combination Index at ED75 [1]: 0.89
- Combination Index at ED90 [1]: 0.78
- Effect (of combination with SGN-40) [1, 4]: Additive → Syn.
- Effect (of combination with SGN-40) ([1]; drug with cross-linked SGN-40, Ramos cells, listed as cisplatin): additive

Molecule: COc1cc([C@@H]2c3cc4c(cc3[C@@H](O[C@@H]3O[C@@H]5CO[C@@H](C)O[C@H]5[C@H](O)[C@H]3O)[C@H]3COC(=O)[C@H]23)OCO4)cc(OC)c1O [Etoposide]
- Effect (of combination with SGN-40) [1, 4]: Antagonistic. → Add.

Molecule: N[C@@H](Cc1ccc(N(CCCl)CCCl)cc1)C(=O)O [Melphalan]
- Effect (of combination with SGN-40) [1, 4]: Additive
- Effect (of combination with SGN-40) ([1]; drug with cross-linked SGN-40, Ramos cells, listed as melphalan): additive

Molecule: O=C1c2c(O)ccc(O)c2C(=O)c2c(NCCNCCO)ccc(NCCNCCO)c21 [Mitoxantrone]
- Effect (of combination with SGN-40) [1, 4]: Syn. → Add.
- Effect (of combination with SGN-40) ([1]; drug with cross-linked SGN-40, Ramos cells, listed as mitoxantrone): additive

Molecule: Bleomycin
- Effect (of combination with SGN-40) [1]: Synergistic

Molecule: TNFα
- Combination Index at ED50 [1]: 0.70
- Combination Index at ED75 [1]: 0.61
- Combination Index at ED90 [1]: 0.60
- Effect (of combination with SGN-40) [1, 4]: Synergistic

B1: SGN-14 (parent murine antibody, donor) (antibody, V domains shown)
VH: EVQLQQSGPDLVKPGASVKISCKASGYSFTGYYIHWVKQSHGKSLEWIGRVIPNNGGTSYNQKFKGKAILTVDKSSSTAYMELRSLTSEDSAVYYCAREGIYWWGHGTTLTVS
VL: DVVVTQTPLSLPVSLGAQASISCRSSQSLVHSNGNTFLHWYLQKPGQSPKLLIYTVSNRFSGVPDRFSGSGSGTDFTLKISRVEAEDLGVYFCSQTTHVPWTFGGGTKLEIQR
notes: Murine monoclonal antibody; also called S2C6; murine CD40 donor antibody
- Binding Data 1 [2]: 1
- Binding Data 2 [2]: 1.33

B2: hu sgn-1 (antibody, V domains shown)
VH: EVQLVESGGGLVQPGGSLRLSCAASGYSFTGYYIHWVRQAPGKGLEWVARVIPNNGGTSYNQKFKGRFTISVDNSKNTLYLQMNSLRAEDTAVYYCAREGIYWWGQGTLVTVS
VL: DIQMTQSPSSLSASVGDRVTITCRSSQSLVHSNGNTFLHWYQQKPGKAPKLLIYTVSNRFSGVPSRFSGSGSGTDFTLTISSLQPEDFATYYCSQTTHVPWTFGQGTKVEIKR
- Binding Data 1 [2]: 23.6
- Binding Data 2 [2]: 19.3

B3: hu sgn-16: humanized CD40 antibody variant, heavy SEQ ID NO: 9 (F68A I69L R72V), light SEQ ID NO: 14 (antibody, V domains shown)
VH: B2 VH with F68A, I70L
VL: B2 VL
- Binding Data 2 [3]: 1.82 and 1.83

B4: hu sgn-19: humanized CD40 antibody variant, heavy SEQ ID NO: 7, light SEQ ID NO: 16 (Y92F) (antibody, V domains shown)
VH: B2 VH with I70L, L79A
VL: B2 VL with Y92F
- binding activity compared with the parent murine antibody [3]: approaching that of the parent murine antibody

B5: hu sgn-14: humanized CD40 antibody variant, heavy SEQ ID NO: 7 (I70L R72V L79A), light SEQ ID NO: 14 (antibody, V domains shown)
VH: B2 VH with I70L, L79A
VL: B2 VL
- Binding Data 1 [3]: 1/11 and 0.86 and 0.77
- Binding Data 2 [3]: 0.69 and 0.77

B6: hu sgn-2 (antibody, V domains shown)
VH: B2 VH with V72R, N74K
VL: B2 VL
- Binding Data 1 [2]: 471
- Binding Data 2 [2]: 371

B7: hu sgn-4 (antibody, V domains shown)
VH: B2 VH with F68A, I70L, L79A
VL: B2 VL
- Binding Data 2 [2]: 2.46

B8: hu sgn-27 (antibody, V domains shown)
VH: B2 VH with N55Q, I70L, L79A
VL: B2 VL with Y92F
- Binding Data 2 [2]: 1.4
- Binding Data 1 [3]: 1.04 and 1.03 and 0.94 and 0.83
- binding activity compared with the parent murine antibody [3]: approaching that of the parent murine antibody; also recorded: more closely approaching that of the parent murine antibody

B9: hu sgn-23 (antibody, V domains shown)
VH: B2 VH with N55Q, I70L, L79A
VL: B2 VL
- Binding Data 2 [2]: 0.9
- binding activity compared with the parent murine antibody [3]: approaching that of the parent murine antibody

B10: hu sgn-18 (antibody, V domains shown)
VH: B2 VH with F68A, I70L, L79A
VL: B2 VL with Y92F
- Binding Data 2 [2]: 1.03
- Binding Data 1 [3]: 0.96 and 0.67
- binding activity compared with the parent murine antibody [3]: approaching that of the parent murine antibody; also recorded: more closely approaching that of the parent murine antibody

B11: hu sgn-17 (antibody, V domains shown)
VH: B2 VH with F68A, I70L, L79A
VL: B2 VL with I2V, M4V
- Binding Data 2 [2]: 3.56

B12: hu sgn-26 (antibody, V domains shown)
VH: B2 VH with N55A, I70L, L79A
VL: B2 VL with Y92F
- Binding Data 2 [2]: 0.92
- Binding Data 1 [3]: 1.02 and 1.06
- binding activity compared with the parent murine antibody [3]: approaching that of the parent murine antibody; also recorded: more closely approaching that of the parent murine antibody; also recorded: best performance

B13: hu sgn-22 (antibody, V domains shown)
VH: B2 VH with N55A, I70L, L79A
VL: B2 VL
- Binding Data 2 [2]: 0.84
- Binding Data 1 [3]: 1.44 and 1.41 and 1.80 and 0.93
- binding activity compared with the parent murine antibody [3]: approaching that of the parent murine antibody

B14: hu sgn-15 (antibody, V domains shown)
VH: B2 VH with F68A, L79A
VL: B2 VL
- Binding Data 2 [2]: 2.71
